Test results from patent publication US20260285970 (published 2026).
Where a chain is given by its changes, count along the chain named. Each block holds one binder with its values, some of them ahead of it.

What was measured:
Test in all cases: ELISA
[1] = target: IL-2 (UniProt P60568)
[2] = target: IL-17
[3] = target: BSA (bovine, UniProt P02769)
[4] = target: T1, IL-4 (UniProt P05112)
T1 chain: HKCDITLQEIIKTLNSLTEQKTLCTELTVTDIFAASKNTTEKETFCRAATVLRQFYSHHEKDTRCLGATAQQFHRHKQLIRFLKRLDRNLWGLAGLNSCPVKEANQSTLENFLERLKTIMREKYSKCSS

Chain of IL-2 (P60568 21-153): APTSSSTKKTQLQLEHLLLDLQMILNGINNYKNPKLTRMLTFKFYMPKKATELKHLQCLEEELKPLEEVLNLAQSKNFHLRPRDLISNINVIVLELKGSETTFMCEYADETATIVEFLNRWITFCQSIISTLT
Chain of IL-17 (chain, as listed by the source): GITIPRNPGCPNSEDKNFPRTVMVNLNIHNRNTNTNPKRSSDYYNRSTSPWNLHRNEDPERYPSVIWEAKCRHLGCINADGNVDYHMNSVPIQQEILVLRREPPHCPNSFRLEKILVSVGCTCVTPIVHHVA
Chain of BSA (P02769 25-607): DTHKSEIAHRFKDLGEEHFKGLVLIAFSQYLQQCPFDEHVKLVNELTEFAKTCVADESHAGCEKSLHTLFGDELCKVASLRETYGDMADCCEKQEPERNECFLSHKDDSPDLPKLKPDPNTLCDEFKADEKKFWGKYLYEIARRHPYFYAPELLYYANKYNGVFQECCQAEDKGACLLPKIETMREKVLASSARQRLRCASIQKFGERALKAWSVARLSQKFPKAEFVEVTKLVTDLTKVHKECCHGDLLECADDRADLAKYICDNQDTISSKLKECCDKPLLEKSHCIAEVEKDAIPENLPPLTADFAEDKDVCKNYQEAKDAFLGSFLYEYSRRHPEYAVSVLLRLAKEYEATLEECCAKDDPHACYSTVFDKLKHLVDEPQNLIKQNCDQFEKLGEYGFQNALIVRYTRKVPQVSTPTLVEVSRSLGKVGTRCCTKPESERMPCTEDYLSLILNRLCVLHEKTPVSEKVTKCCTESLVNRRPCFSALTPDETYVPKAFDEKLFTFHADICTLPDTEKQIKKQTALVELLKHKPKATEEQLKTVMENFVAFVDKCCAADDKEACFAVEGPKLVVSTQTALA

- binding result [1]: no binding
- binding result [2]: no binding
B1: BDG33.025 (antibody, V domains shown)
VH: QMQLVESGGGVVQPGRSLRLSCAASGFTFRTYGMHWVRQAPGKGLEWVADIWYDGSNKHYADSVKGRFTITRDNSKNTLNLQMNSLRAEDTAVYYCARAPQWYLVAEPFDLWGQGTMVTVSS
VL: SYVLTQPPSVSVAPGQTARITCGGNLIGSKLVHWYQQKPGQAPVLVVYDDSDRPSLIPERFSGSNSGNTATLTISRVEAGDEADYYCQVWDSSSDGVVFGGGTKLTVL

- binding result [3]: no binding
- binding result [1]: no binding
- binding result [4]: no binding
- binding result [2]: no binding
B2: BDG33.023 (antibody, V domains shown)
VH: B1 VH with T28A, D50V, K58T, V105S, P108A
VL: B1 VL with L56R, S92H, G96H
